{"source": "patent US20050064507A1", "about": "“Determining kinase specificity” (priority 2003, published 2005)"}
{"biological_target": "T1, PKC-delta (Homo sapiens, UniProt Q05655)", "T1 construct": "purchased Calbiochem", "T1 sequence (Q05655 whole entry)": "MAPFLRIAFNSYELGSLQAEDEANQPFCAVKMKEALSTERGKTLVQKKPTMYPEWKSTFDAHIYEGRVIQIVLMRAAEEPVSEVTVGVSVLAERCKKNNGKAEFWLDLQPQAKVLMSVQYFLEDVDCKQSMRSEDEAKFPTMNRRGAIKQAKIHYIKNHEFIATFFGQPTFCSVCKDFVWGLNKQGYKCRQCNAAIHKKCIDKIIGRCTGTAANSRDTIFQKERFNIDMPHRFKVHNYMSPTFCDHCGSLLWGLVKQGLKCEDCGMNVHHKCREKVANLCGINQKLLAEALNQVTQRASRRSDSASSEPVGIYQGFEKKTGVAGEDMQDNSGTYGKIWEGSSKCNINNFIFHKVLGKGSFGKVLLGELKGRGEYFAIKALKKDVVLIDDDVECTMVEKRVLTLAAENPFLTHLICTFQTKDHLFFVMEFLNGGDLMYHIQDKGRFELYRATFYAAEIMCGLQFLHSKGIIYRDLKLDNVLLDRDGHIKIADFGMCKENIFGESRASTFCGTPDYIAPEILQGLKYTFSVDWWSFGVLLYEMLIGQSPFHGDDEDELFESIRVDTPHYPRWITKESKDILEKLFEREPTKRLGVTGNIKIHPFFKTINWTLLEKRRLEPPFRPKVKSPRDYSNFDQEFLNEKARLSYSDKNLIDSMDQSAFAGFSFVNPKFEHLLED", "test": "In vitro kinase assay: peptide phosphorylation by PKC-delta", "type": "biochemical", "conditions": "PKC-delta", "from_the_text": "(§1) One approach to validating a substrate identification method can involve, for example, comparison of substrate sites predicted by the method with in vitro phosphorylation results obtained using the selected kinase and peptides of known sequences. Such a systematic validation has been performed for the methods described herein. For example, a panel of seventy five peptides was synthesized, the phosphorylation observed for each peptide was experimentally measured, the amount of phosphorylation was quantified, the phosphorylation results for each peptide were normalized to the phosphorylation observed with the best substrate tested and these amounts were compared with predictions made according to the invention and according to the procedures provided by others. These peptides are referred to herein as proteomic peptides because their sequences are chosen from proteins in the human proteome; unlike the test sets employed herein, these peptides include no degenerate positions\n(§2) Table 2 compares the present predictions with actual measurements of phosphorylation on validating peptides. The method of synthesis of the validating peptides was as described elsewhere in the application, and each included an N-terminal linker sequence of biotinylated-Lys-dansylated-Lys-Pro-Pro-Gly (SEQ ID NO:231). The length of the remaining “core” of the validating peptides ranged from 12-21 residues with one to five S/T residues. In vitro phosphorylation of these validating peptides was measured in the manner described herein. […] In vitro phosphorylation results for the validating peptides were expressed as normalized values, namely as a percentage of phosphorylation of the best validating peptide substrate in the group.\n(§3) The conditions of the kinase assay and the amount of active kinase used varied with the kinase and with the accuracy needed. For a typical experiment, 5-20 ng of kinase was used per well and each peptide pool was assayed in duplicate wells. Note that the absolute amount of kinase used was not usually a critical parameter, because the desired information related to specificity of the kinase not its absolute activity, and robustness of the assay depends on comparisons of the same amount of kinase on different peptides. The combination of kinase concentration and assay duration was modified to assure that the stoichiometry of peptide phosphorylation never exceeded 5%. The choice of kinase buffer depended on the kinase being analyzed. For studies of PKC, 100 mM HEPES, 0.05% Triton-X100, 1 mM CaCl2, 20 mM MgCl2, 0.2 mg/ml phosphatidyl serine (Avanti Polar Lipids), PMA 100 ng/ml was typically used. The lipid stock was prepared by transferring 3 mg phosphatidyl serine into iced mixture of 450 μl water plus 50 μl of 10% Triton-X100, sonicating 10 times on ice for 1 sec each.\n(§4) The kinase reaction mixture was assembled by sequential addition to a tube held on ice of: 5 μl peptide (100 μM for final concentration of 10 μM), 15 μl of kinase (typically 5 ng/well, in appropriate kinase buffer), 30 μl of ATP (1 uCi/well of ^32P-gamma ATP in a stock of 167 μM cold ATP in the kinase buffer; for final concentration for 100 μM ATP). The mixture was rapidly warmed to desired reaction temperature (30° C. for PKC) and incubated for the desired duration (usually 10 minutes). The kinase assay was terminated by transfer to 4° C. water batch, and rapid addition of an equal volume (50 μl) of stop solution [0.1M ATP+0.1M EDTA in water, pH 8].\n(§5) The peptides were then captured from the reaction mixture by transfer to a Reacti-Bind Streptavidin High Binding Capacity Coated Plates (HBC) (Pierce Biotechnology) as follows. The HBC plates were pre-rinsed three times with PBS/Tween PBS/Tween20 0.05% (PBS/Tween). […]"}
{"substance": "4 (KFARKSTRRSIRLPE) [compound 4]", "phosphorylation in the in vitro validating assay": "highly phosphorylated"}
{"substance": "7 (RKIPKRPGSVHRTPSRQ) [compound 7]", "phosphorylation in the in vitro validating assay": "highly phosphorylated"}
{"substance": "9 (QKKSRLRRRASQLKI) [compound 9]", "phosphorylation in the in vitro validating assay": "highly phosphorylated"}
{"substance": "11 (KKKFRTPSFLKKSKK) [compound 11]", "phosphorylation in the in vitro validating assay": "highly phosphorylated"}
{"substance": "60 (LRRKHLGTLNFGGIR) [compound 60]", "phosphorylation in the in vitro validating assay": "poorly phosphorylated"}
{"substance": "64 (ALRAPKPTLRYFTTERF) [compound 64]", "phosphorylation in the in vitro validating assay": "poorly phosphorylated"}
{"substance": "66 (GFAKKIGSGQKTWTF) [compound 66]", "phosphorylation in the in vitro validating assay": "poorly phosphorylated"}
{"substance": "69 (LALTARESSVRSGGAG) [compound 69]", "phosphorylation in the in vitro validating assay": "poorly phosphorylated"}
{"biological_target": "T1, PKC-delta", "test": "In vitro kinase assay: peptide phosphorylation by PKC-delta", "type": "biochemical", "conditions": "peptide concentration of 10 nM; percentage of phosphorylation of the best validating peptide substrate", "from_the_text": "as §1, §2, §3, §4, §5", "units": {"Measured in vitro phosphorylation by PKC-delta": "%"}}
{"substance": "1 (HVRRRRGTFKRSKLRARD) [compound 1]", "Measured in vitro phosphorylation by PKC-delta": 100}
{"substance": "2 (KKKKRASFKRKSSKKG) [compound 2]", "Measured in vitro phosphorylation by PKC-delta": 76}
{"substance": "3 (NRKKKRTSFKRKA) [compound 3]", "Measured in vitro phosphorylation by PKC-delta": 66}
{"substance": "4 (KFARKSTRRSIRLPE) [compound 4]", "Measured in vitro phosphorylation by PKC-delta": 52}
{"substance": "5 (RQRKRKLSFRRRTDKD) [compound 5]", "Measured in vitro phosphorylation by PKC-delta": 42}
{"substance": "6 (PRLIRRGSKKRPAR) [compound 6]", "Measured in vitro phosphorylation by PKC-delta": 40}
{"substance": "7 (RKIPKRPGSVHRTPSRQ) [compound 7]", "Measured in vitro phosphorylation by PKC-delta": 38}
{"substance": "8 (AARKKRISVKKKQEQ) [compound 8]", "Measured in vitro phosphorylation by PKC-delta": 35}
{"substance": "9 (QKKSRLRRRASQLKI) [compound 9]", "Measured in vitro phosphorylation by PKC-delta": 34}
{"substance": "10 (AQIVKRASLKRGKQ) [compound 10]", "Measured in vitro phosphorylation by PKC-delta": 32}
{"substance": "11 (KKKFRTPSFLKKSKK) [compound 11]", "Measured in vitro phosphorylation by PKC-delta": 25}
{"substance": "12 (KKKKKRFSFKKSFKL) [compound 12]", "Measured in vitro phosphorylation by PKC-delta": 24}
{"substance": "13 (WKGKRRSKARKKRK) [compound 13]", "Measured in vitro phosphorylation by PKC-delta": 22}
{"substance": "14 (EYLERRASRRRAV) [compound 14]", "Measured in vitro phosphorylation by PKC-delta": 20}
{"substance": "15 (RGFLRSASLGRRASFHLE) [compound 15]", "Measured in vitro phosphorylation by PKC-delta": 18}
{"substance": "16 (DGQKRKKSLRKKLD) [compound 16]", "Measured in vitro phosphorylation by PKC-delta": 17}
{"substance": "17 (AGWRKKTSFRKPKED) [compound 17]", "Measured in vitro phosphorylation by PKC-delta": 17}
{"substance": "18 (KKRFSFKKSFKLSGFSFKKN) [compound 18]", "Measured in vitro phosphorylation by PKC-delta": 16}
{"substance": "19 (AGSFKRNSIKKIV) [compound 19]", "Measured in vitro phosphorylation by PKC-delta": 14}
{"substance": "20 (GAPPRRSSIRNAH) [compound 20]", "Measured in vitro phosphorylation by PKC-delta": 13}
{"substance": "21 (KLAVGRHSFSRRSGV) [compound 21]", "Measured in vitro phosphorylation by PKC-delta": 12}
{"substance": "22 (LLKKRDSFRTPRDSKLE) [compound 22]", "Measured in vitro phosphorylation by PKC-delta": 12}
{"substance": "23 (QKRHARVTVKYDRRE) [compound 23]", "Measured in vitro phosphorylation by PKC-delta": 10}
{"substance": "24 (EKIKRSSLKKVDSLKK) [compound 24]", "Measured in vitro phosphorylation by PKC-delta": 10}
{"substance": "25 (EILSRRPSYRKILND) [compound 25]", "Measured in vitro phosphorylation by PKC-delta": 9}
{"substance": "26 (ALRRPSLRREADD) [compound 26]", "Measured in vitro phosphorylation by PKC-delta": 9}
{"substance": "27 (KKRKKKSSKSLAHA) [compound 27]", "Measured in vitro phosphorylation by PKC-delta": 8}
{"substance": "28 (KRPGKKGSNKRPGKR) [compound 28]", "Measured in vitro phosphorylation by PKC-delta": 8}
{"substance": "29 (RKNDRKKRYTVVGNP) [compound 29]", "Measured in vitro phosphorylation by PKC-delta": 8}
{"substance": "30 (KEVVRTDSLKGRRGR) [compound 30]", "Measured in vitro phosphorylation by PKC-delta": 7}
{"substance": "31 (RKKRKKKSSKSLAHAGVALA) [compound 31]", "Measured in vitro phosphorylation by PKC-delta": ">5"}
{"substance": "32 (KATTKKRTLRKNDRK) [compound 32]", "Measured in vitro phosphorylation by PKC-delta": ">5"}
{"substance": "34 (EGGDRRASGRRK) [compound 34]", "Measured in vitro phosphorylation by PKC-delta": 5}
{"substance": "35 (GLLDRKGSWKKLDDM) [compound 35]", "Measured in vitro phosphorylation by PKC-delta": 4}
{"substance": "36 (GENVLKKSMKSRVKG) [compound 36]", "Measured in vitro phosphorylation by PKC-delta": 4}
{"substance": "37 (AYIERMNSIHRDLRA) [compound 37]", "Measured in vitro phosphorylation by PKC-delta": 3}
{"substance": "38 (NYLRRRLSDSNFMAN) [compound 38]", "Measured in vitro phosphorylation by PKC-delta": 3}
{"substance": "39 (LLGSGKVTDRKAL) [compound 39]", "Measured in vitro phosphorylation by PKC-delta": 3}
{"substance": "40 (NMEAKKLSKDRMKKY) [compound 40]", "Measured in vitro phosphorylation by PKC-delta": 3}
{"substance": "41 (FVHQASFKFGQGD) [compound 41]", "Measured in vitro phosphorylation by PKC-delta": 3}
{"substance": "42 (QPEGLRSLKKPDRKKR) [compound 42]", "Measured in vitro phosphorylation by PKC-delta": 3}
{"substance": "43 (AWVTVHEKKSSRKSEYL) [compound 43]", "Measured in vitro phosphorylation by PKC-delta": 3}
{"substance": "44 (VLAKKGTSKTPVPE) [compound 44]", "Measured in vitro phosphorylation by PKC-delta": 2}
{"substance": "45 (VFREHQRSGSYHVRE) [compound 45]", "Measured in vitro phosphorylation by PKC-delta": 2}
{"substance": "46 (GQAWGRQSPRRLED) [compound 46]", "Measured in vitro phosphorylation by PKC-delta": 2}
{"substance": "47 (ARIIGEKSFRRSVVG) [compound 47]", "Measured in vitro phosphorylation by PKC-delta": 2}
{"substance": "48 (AVNSRRRAGQKKK) [compound 48]", "Measured in vitro phosphorylation by PKC-delta": 2}
{"substance": "49 (VQQLLRSSNRRLEQL) [compound 49]", "Measured in vitro phosphorylation by PKC-delta": 2}
{"substance": "50 (ENLRRVATDRRHLGH) [compound 50]", "Measured in vitro phosphorylation by PKC-delta": 2}
{"substance": "51 (DLLGKKVSTKTLSEDD) [compound 51]", "Measured in vitro phosphorylation by PKC-delta": 2}
{"substance": "52 (HKHSPEKRGSERKEG) [compound 52]", "Measured in vitro phosphorylation by PKC-delta": 2}
{"substance": "53 (AKNLKTLQKRDSFIG) [compound 53]", "Measured in vitro phosphorylation by PKC-delta": 2}
{"substance": "54 (ENLRKVTTDKKSLAY) [compound 54]", "Measured in vitro phosphorylation by PKC-delta": 2}
{"substance": "55 (DDMEHKTLKITDFG) [compound 55]", "Measured in vitro phosphorylation by PKC-delta": 2}
{"substance": "56 (EARLGAASLKFGARD) [compound 56]", "Measured in vitro phosphorylation by PKC-delta": 2}
{"substance": "57 (KNVVKLLSSRRTQDR) [compound 57]", "Measured in vitro phosphorylation by PKC-delta": 2}
{"substance": "58 (RVKLGTLRRPEGP) [compound 58]", "Measured in vitro phosphorylation by PKC-delta": 1}
{"substance": "59 (PVNKRSKYTMMK) [compound 59]", "Measured in vitro phosphorylation by PKC-delta": 1}
{"substance": "60 (LRRKHLGTLNFGGIR) [compound 60]", "Measured in vitro phosphorylation by PKC-delta": 1}
{"substance": "61 (VDNILKKSNKKLEEL) [compound 61]", "Measured in vitro phosphorylation by PKC-delta": 1}
{"substance": "62 (AVRDMRQTVAVGVIK) [compound 62]", "Measured in vitro phosphorylation by PKC-delta": 1}
{"substance": "63 (QRQERIFSKRRGQDF) [compound 63]", "Measured in vitro phosphorylation by PKC-delta": 1}
{"substance": "64 (ALRAPKPTLRYFTTERF) [compound 64]", "Measured in vitro phosphorylation by PKC-delta": 1}
{"substance": "65 (IKVTHKATGKVMVMK) [compound 65]", "Measured in vitro phosphorylation by PKC-delta": 1}
{"substance": "66 (GFAKKIGSGQKTWTF) [compound 66]", "Measured in vitro phosphorylation by PKC-delta": 1}
{"substance": "67 (AINSRETMFHKERFK) [compound 67]", "Measured in vitro phosphorylation by PKC-delta": 1}
{"substance": "68 (RGEGHKPSIAHRDFK) [compound 68]", "Measured in vitro phosphorylation by PKC-delta": 1}
{"substance": "69 (LALTARESSVRSGGAG) [compound 69]", "Measured in vitro phosphorylation by PKC-delta": 1}
{"substance": "70 (HERKGSDKRGDNQ) [compound 70]", "Measured in vitro phosphorylation by PKC-delta": 1}
{"substance": "71 (RRRQKRRTGALVLSRGGKR) [compound 71]", "Measured in vitro phosphorylation by PKC-delta": 1}
{"substance": "72 (LTDPKEDPIYDEPEGLAPVPG) [compound 72]", "Measured in vitro phosphorylation by PKC-delta": 0}
{"substance": "73 (IDYYKKTTNGRLPVK) [compound 73]", "Measured in vitro phosphorylation by PKC-delta": 0}
{"substance": "74 (IDYYKKTSNGRLPVK) [compound 74]", "Measured in vitro phosphorylation by PKC-delta": 0}
